From EP1034789A1

What was measured:
[1] = molecular target: cellular receptor of fMLP (human); test: 3H-fMLP bound to cells, Exp. 1, with unlabeled fMLP
[2] = molecular target: cellular receptor of fMLP (human); test: 3H-fMLP bound to cells, Exp. 1, no inhibitor
[3] = molecular target: cellular receptors of MIP-1α on primary human monocytes and THP-1 cells (human); test: 125I-MIP-1α bound to primary human monocytes, Exp. 1, no inhibitor
[4] = molecular target: cellular receptors of MIP-1α on primary human monocytes and THP-1 cells (human); test: 125I-MIP-1α bound to human monocytic cells, Exp. 1, no inhibitor
[5] = molecular target: cellular receptors of MIP-1α on primary human monocytes and THP-1 cells (human); test: 125I-MIP-1α bound to THP-1 cells, Exp. 3, 6500X excess unlabeled MIP-1α (background control)
[6] = molecular target: cellular receptors of MIP-1α on primary human monocytes and THP-1 cells (human); test: 125I-MIP-1α bound to primary human monocytes, Exp. 2, 6500X excess unlabeled MIP-1α (background control)
[7] = molecular target: cellular receptors of MIP-1α on primary human monocytes and THP-1 cells (human); test: 125I-MIP-1α bound to primary human monocytes, Exp. 1, 6500X excess unlabeled MIP-1α (background control)
[8] = molecular target: cellular receptors of MIP-1α on primary human monocytes and THP-1 cells (human); test: 125I-MIP-1α bound to primary human monocytes, Exp. 2, no inhibitor
[9] = molecular target: cellular receptors of MIP-1α on primary human monocytes and THP-1 cells (human); test: 125I-MIP-1α bound to THP-1 cells, Exp. 3, no inhibitor
[10] = molecular target: cellular receptors of MIP-1α on primary human monocytes and THP-1 cells (human); test: 125I-MIP-1α bound to human monocytic cells, Exp. 1, 6500X molar excess unlabeled MIP-1α (background control)

fMLP (peptide)
Surface Bound fMLP [1]: 132 cpm | Surface Bound fMLP [2]: 374 cpm

human MIP-1α (from UniProt P10147 24-92) (ligand)
Surface Bound MIP-1α [3]: 4700 cpm | Surface Bound MIP-1α [4]: 12200 cpm | Surface Bound MIP-1α [5]: 1040 cpm | Surface Bound MIP-1α [6]: 410 cpm | Surface Bound MIP-1α [7]: 470 cpm | Surface Bound MIP-1α [8]: 7710 cpm | Surface Bound MIP-1α [9]: 9940 cpm | Surface Bound MIP-1α [10]: 444 cpm
